Experimental data reported in publication PMC12205362.

Tested on: MutS (Cy3-labeled) (Escherichia coli)
Experiment: smFRET (TIRF)
Settings: GT mismatch, amino-dT, smTIRF FRET on surface-immobilized plasmids, imaging buffer and temperature not in material, dCas9 RNP assembled in 30 mM HEPES, 150 mM KCl, pH 7.5, MutS with …; for binding signal (fold lower k-1 vs RC): ATP

Q: How did the binding signal (fold lower k-1 vs RC) (k1 ~1.3x higher than RC, negatively supercoiled by gyrase, average sigma -0.07) turn out when “pUC19HL_MutS GT mismatch, negatively supercoiled (-)SC” was run?
A: 1.3

Q: And the binding signal (negatively supercoiled by gyrase, average sigma -0.07)?
A: 0.075 s-1 (koff)

Q: With “pUC19HL_MutS GT mismatch, positively supercoiled (+)SC” as the substance, how does the binding signal (fold lower k-1 vs RC) (k1 similar to RC, positively supercoiled by 9N reverse gyrase, average sigma +0.03) read?
A: 1.3

Q: And the binding signal (positively supercoiled by 9N reverse gyrase, average sigma +0.03)?
A: 0.107 s-1 (koff)

Q: “pUC19HL_MutS GT mismatch, relaxed circular (RC)” was tested. Which binding signal (covalently closed relaxed circle) did it give?
A: 0.204 s-1 (koff)
